Experimental data published in the supplement of paper PMC10724198.
± gives the standard deviation of the averaged measurements.

Assays:
Saccharomyces cerevisiae [1] = assay: protein stability index of tFT-peptide fusion (C-terminal peptide) (PSI (0-1 scale)); higher = more stable (slower turnover); details: genetic background: wild type; temperature: 30 C
Saccharomyces cerevisiae [2] = assay: as above
Procedure: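 MPS profiling in S. cerevisiae of the tFT-X12 degron library: putative degron peptides plus stable controls, 12 aa, fused to the C-terminus of a sfGFP-mCherry timer. Cells are FACS-sorted into 8 mCherry/sfGFP bins and deep-sequenced. PSI runs from 0 (unstable) to 1 (stable). Backgrounds are wild type, das1Δ and doa10Δ at 30 °C, and wild type, das1Δ, cdc34-1 and cdc53-1 at 37 °C; 2-3 technical replicates each.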

[3] = genetic background: cdc34-1, temperature: 37 C
[4] = genetic background: cdc53-1, temperature: 37 C
[5] = genetic background: das1 deletion, temperature: 30 C
[6] = genetic background: das1 deletion, temperature: 37 C
[7] = genetic background: doa10 deletion, temperature: 30 C
[8] = genetic background: wild type, temperature: 30 C
[9] = genetic background: wild type, temperature: 37 C
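Further: PSI is a weighted mean of sequencing reads over stability bins, variants kept only with over 10 reads, mCherry proximal and sfGFP distal, peptide attached via GGGS linker.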

Sequence	protein stability index (Saccharomyces cerevisiae [1])	protein stability index (Saccharomyces cerevisiae [2]; [3])	protein stability index (Saccharomyces cerevisiae [2]; [4])	protein stability index (Saccharomyces cerevisiae [2]; [5])	protein stability index (Saccharomyces cerevisiae [2]; [6])	protein stability index (Saccharomyces cerevisiae [2]; [7])	protein stability index (Saccharomyces cerevisiae [2]; [8])	protein stability index (Saccharomyces cerevisiae [2]; [9])
CLEHLVYCRLAS	0.131 ± 0.022	0.435 ± 0.046	0.624 ± 0.06	0.555 ± 0.015	0.6774 ± 0.0062	0.0612 ± 0.0023	0.0694 ± 0.025	0.0634 ± 0.0027
RVWTTVFIIRAT	0.333 ± 0.062	0.595 ± 0.032	0.609 ± 0.055	0.493 ± 0.03	0.6146 ± 0.0043	0.216 ± 0.023	0.229 ± 0.024	0.424 ± 0.023
WVLSRAAFVFFF	0.44 ± 0.018	0.587 ± 0.04	0.612 ± 0.0096	0.473 ± 0.019	0.606 ± 0.011	0.322 ± 0.0078	0.337 ± 0.022	0.5201 ± 0.0035
CGFVFFVLVVFW	0.15 ± 0.035	0.112 ± 0.0055	0.17 ± 0.0063	0.12 ± 0.033	0.229 ± 0.0079	0.15 ± 0.0054	0.114 ± 0.025	0.193 ± 0.026
SGVVWFYIFCLS	0.361 ± 0.011	0.4729 ± 0.00067	0.535 ± 0.0018	0.322 ± 0.038	0.57 ± 0.015	0.254 ± 0.014	0.279 ± 0.043	0.494 ± 0.023
EVVFHVFLVGLV	0.362 ± 0.0059	0.314 ± 0.015	0.451 ± 0.015	0.292 ± 0.035	0.512 ± 0.018	0.203 ± 0.012	0.274 ± 0.013	0.464 ± 0.0058
PPPLPFPTPPPS	0.433 ± 0.038	0.689 ± 0.0093	0.764 ± 0.041	0.644 ± 0.044	0.702 ± 0.0074	0.634 ± 0.025	0.646 ± 0.032	0.6663 ± 0.0036
NLVCLDPFLVFV	0.581 ± 0.22	0.582 ± 0.027	0.612 ± 0.011	0.478 ± 0.018	0.613 ± 0.0077	0.475 ± 0.026	0.472 ± 0.025	0.5835 ± 0.003
LVPLSLLLCFFV	0.3058 ± 0.0028	0.515 ± 0.027	0.5647 ± 0.0036	0.411 ± 0.028	0.551 ± 0.0063	0.178 ± 0.0019	0.205 ± 0.015	0.354 ± 0.0088
LRLEFRTNWFLQ	0.2 ± 0.0067	0.557 ± 0.042	0.7363 ± 0.0049	0.654 ± 0.015	0.752 ± 0.017	0.101 ± 0.016	0.132 ± 0.0047	0.402 ± 0.0072
AMRTIFFPAFVS	0.28 ± 0.075	0.543 ± 0.033	0.708 ± 0.0082	0.655 ± 0.0093	0.743 ± 0.018	0.158 ± 0.014	0.157 ± 0.013	0.222 ± 0.0069
APLSPLLPPFLC	0.391 ± 0.088	0.693 ± 0.036	0.729 ± 0.012	0.661 ± 0.024	0.74816 ± 0.00015	0.3485 ± 0.0016	0.369 ± 0.05	0.595 ± 0.013
MALAVRVVLCGA	0.236 ± 0.034	0.0507 ± 0.0085	0.0673 ± 0.038	0.165 ± 0.026	0.192 ± 0.0025	0.116 ± 0.029	0.153 ± 0.0088	0.168 ± 0.0051
VRHPVVVVRRVI	0.508 ± 0.055	0.663 ± 0.017	0.746 ± 0.0067	0.649 ± 0.035	0.70566 ± 0.00012	0.3516 ± 0.0032	0.411 ± 0.025	0.576 ± 0.0099
FVSHRRFSLFLY	0.209 ± 0.02	0.584 ± 0.038	0.691 ± 0.011	0.602 ± 0.019	0.726 ± 0.046	0.124 ± 0.0019	0.143 ± 0.021	0.203 ± 0.019
FALPPSLLLLSA	0.501 ± 0.026	0.544 ± 0.019	0.557 ± 0.013	0.442 ± 0.027	0.5917 ± 0.0017	0.418 ± 0.0085	0.449 ± 0.016	0.55962 ± 0.00044
IEVACLLTAFCD	0.251 ± 0.027	0.22 ± 0.026	0.262 ± 0.0062	0.257 ± 0.028	0.225 ± 0.0027	0.282 ± 0.043	0.266 ± 0.033	0.209 ± 0.0052
VFSGVTTILVRT	0.539 ± 0.11	0.578 ± 0.05	0.517 ± 0.026	0.37 ± 0.035	0.576 ± 0.022	0.346 ± 0.0089	0.392 ± 0.018	0.538 ± 0.0096
PRQPSKSNASNR	0.582 ± 0.13	0.692 ± 0.044	0.7277 ± 0.00076	0.623 ± 0.023	0.722 ± 0.015	0.64909 ± 0.00052	0.635 ± 0.0095	0.701 ± 0.022
PPSLPPLISFSP	0.729 ± 0.03	0.7 ± 0.039	0.7808 ± 0.0052	0.656 ± 0.015	0.7661 ± 0.0014	0.669 ± 0.011	0.6624 ± 0.0039	0.7407 ± 0.0059

Sequence	protein stability index (Saccharomyces cerevisiae [1])	protein stability index (Saccharomyces cerevisiae [2]; [3])	protein stability index (Saccharomyces cerevisiae [2]; [4])	protein stability index (Saccharomyces cerevisiae [2]; [5])	protein stability index (Saccharomyces cerevisiae [2]; [6])	protein stability index (Saccharomyces cerevisiae [2]; [7])	protein stability index (Saccharomyces cerevisiae [2]; [8])	protein stability index (Saccharomyces cerevisiae [2]; [9])
LLTGRFRILLVV	0.0704 ± 0.021	0.0537 ± 0.0092	0.0715 ± 0.0019	0.176 ± 0.019	0.276 ± 0.004	0.0579 ± 0.017	0.0444 ± 0.0073	0.0674 ± 0.026
DLRGLGRFRISH	0.572 ± 0.11	0.6886 ± 0.0067	0.741 ± 0.021	0.64 ± 0.031	0.7181 ± 0.0055	0.486 ± 0.0072	0.503 ± 0.024	0.677 ± 0.017
LFSVFSLVLFIF	0.427 ± 0.091	0.338 ± 0.0079	0.413 ± 0.011	0.34 ± 0.029	0.501 ± 0.0086	0.316 ± 0.017	0.272 ± 0.023	0.454 ± 0.0073
PVFVLFFFSSLV	0.44 ± 0.012	0.421 ± 0.012	0.533 ± 0.0086	0.371 ± 0.028	0.5579 ± 0.0041	0.329 ± 0.011	0.35 ± 0.013	0.5151 ± 0.0018
DLVGRETRMRLN	0.383 ± 0.0088	0.6744 ± 0.0063	0.70449 ± 0.00037	0.633 ± 0.039	0.7221 ± 0.0045	0.202 ± 0.01	0.263 ± 0.022	0.526 ± 0.097
SWELKWVYARVV	0.131 ± 0.005	0.374 ± 0.0097	0.5602 ± 0.0046	0.516 ± 0.02	0.674 ± 0.017	0.093 ± 0.0033	0.0851 ± 0.0075	0.0902 ± 0.0089
FRSMFLFLNLLF	0.412 ± 0.014	0.458 ± 0.05	0.3523 ± 0.00055	0.391 ± 0.048	0.73 ± 0.02	0.559 ± 0.015	0.371 ± 0.019	0.574 ± 0.025
YWFWLLIGSFSC	0.4576 ± 0.0029	0.487 ± 0.053	0.51 ± 0.013	0.382 ± 0.026	0.526 ± 0.011	0.36 ± 0.019	0.382 ± 0.024	0.504 ± 0.012
KYKLYGIMIIEG	0.329 ± 0.078	0.39 ± 0.066	0.464 ± 0.016	0.283 ± 0.039	0.472 ± 0.026	0.258 ± 0.012	0.262 ± 0.013	0.462 ± 0.04
ARKIGKVIPKLG	0.43 ± 0.027	0.686 ± 0.021	0.732 ± 0.037	0.634 ± 0.043	0.737 ± 0.02	0.292 ± 0.0097	0.341 ± 0.039	0.599 ± 0.011
CGQIAFLGIAVK	0.4722 ± 0.0006	0.479 ± 0.0077	0.504 ± 0.043	0.317 ± 0.042	0.551 ± 0.024	0.289 ± 0.015	0.323 ± 0.029	0.541 ± 0.0077
RVVNRWGVCFLG	0.231 ± 0.0097	0.6 ± 0.0065	0.7178 ± 0.0067	0.639 ± 0.014	0.733 ± 0.021	0.124 ± 0.014	0.131 ± 0.0093	0.199 ± 0.015
CFVISVLFFFVG	0.444 ± 0.025	0.292 ± 0.011	0.491 ± 0.035	0.288 ± 0.035	0.467 ± 0.015	0.284 ± 0.024	0.286 ± 0.013	0.436 ± 0.03
FKYRVPLVGVVK	0.347 ± 0.0072	0.30503 ± 3.5e-05	0.317 ± 0.033	0.245 ± 0.029	0.43316 ± 0.00012	0.203 ± 0.018	0.25 ± 0.02	0.3897 ± 0.00038
IFVFVSFPSCVL	0.468 ± 0.012	0.603 ± 0.062	0.644 ± 0.022	0.56 ± 0.041	0.627 ± 0.0096	0.35 ± 0.0042	0.399 ± 0.026	0.568 ± 0.03
FFASAAVHLVTC	0.4533 ± 0.0034	0.513 ± 0.01	0.521 ± 0.032	0.435 ± 0.02	0.559 ± 0.014	0.312 ± 0.0063	0.34 ± 0.016	0.491 ± 0.0037
VGIFKVCALVLR	0.483 ± 0.0098	0.325 ± 0.019	0.296 ± 0.011	0.324 ± 0.027	0.4622 ± 0.003	0.399 ± 0.0062	0.335 ± 0.016	0.446 ± 0.011
LCSCMWISAIAI	0.445 ± 0.0055	0.5594 ± 0.0027	0.574 ± 0.006	0.435 ± 0.024	0.582 ± 0.014	0.41 ± 0.036	0.435 ± 0.027	0.533 ± 0.039
VFFVLAVVGADA	0.397 ± 0.045	0.383 ± 0.044	0.461 ± 0.024	0.331 ± 0.033	0.551 ± 0.018	0.268 ± 0.0086	0.306 ± 0.02	0.467 ± 0.053
